Data as given in patent publication US7435574B2 (Degussa AG, priority 2001, dated 2008).

B1: NADH oxidase (NOX) from Lactobacillus brevis DSM 20054, wild type, SEQ ID NO:2 (Levilactobacillus brevis ATCC 367) (protein)
chain: MKVTVVGCTHAGTFAIKQILAEHPDAEVTVYERNDVISFLSCGIALYLGGKVADPQGLFYSSPEELQKLGANVQMNHNVLAIDPDQKTVTVEDLTSHAQTTESYDKLVMTSGSWPIVPKIPGIDSDRVKLCKNWAHAQALIEDAKEAKRITVIGAGYIGAELAEAYSTTGHDVTLIDAMDRVMPKYFDADFTDVIEQDYRDHGVQLALSETVESFTDSATGLTIKTDKNSYETDLAILCIGFRPNTDLLKGKVDMAPNGAIITDDYMRSSNPDIFAAGDSAAVHYNPTHQNAYIPLATNAVRQGILVGKNLVKPTVKYMGTQSSSGLALYDRTIVSTGLTLAAAKQQGVNAEQVIVEDNYRPEFMPSTEPVLMSLVFDPDTHRILGGALMSKYDVSQSANTLSVCIQNENTIDDLAMVDMLFQPNFDRPFNYLNILAQAAQAKVAQSVNA

Tests used:
[1] = target: NADH oxidase (NOX) from Lactobacillus brevis DSM 20054, wild type, SEQ ID NO:2 (Levilactobacillus brevis, UniProt Q03Q85); conditions: higher NADH concentrations (up to 0.5 mM); photometric
[2] = substrate: NC(=O)C1=CN([C@@H]2O[C@H](COP(=O)(O)OP(=O)(O)OC[C@H]3O[C@@H](n4cnc5c(N)ncnc54)[C@H](O)[C@@H]3O)[C@@H](O)[C@H]2O)C=CC1; assay: purified protein, by the assay type; conditions: other: NADH varied 0.0013 to 0.52 mM, photometric, 340 nm, 30° C., 100 mM potassium phosphate pH 7.5, 1 mM DTT (standard test), enzyme purified by 4 chromatographic steps
[3] = determination of the KM value for NADH; assay type: biochemical
[4] = NAD+ regeneration coupled with R-specific alcohol dehydrogenase recADHG37D, oxidation of (R,S)-phenylethanol, GC analysis; assay type: biochemical; conditions: 50 mM (R,S)-phenylethanol, 2 mM NADH, pH 7.0, 1 U recADHG37D and 2 U NADH oxidase, FIG. 4
Description: This may be necessary for example if NAD-dependent dehydrogenases are used for the oxidation, as has been shown in a general way hereinbefore (reaction scheme 1).
(R,S)-phenylethanol was used as alcohol, and the reaction was carried out as a batch reaction.
As a control the same experiment was carried out, but without the addition of NADH oxidase.

[5] = temperature stability of the NADH oxidase (storage at 30° C. and 42° C., residual activity); assay type: physicochemical
Description: In order to determine the temperature stability enzyme samples were stored at 30° C. and 42° C., samples were taken at various times, and the residual activity was measured. […] At 42° C. the enzyme deactivates initially (up to ca. 120 minutes) relatively quickly, following which it appears to be stable at ca. 50% residual activity over a relatively long time (at least 16 hours).

[6] = temperature optimum of the NADH oxidase; assay type: biochemical; conditions: FIG. 3
[7] = pH stability of the NADH oxidase (8 hours incubation in buffers, residual activity); assay type: physicochemical
Description: The pH optimum was measured in the range pH 4.0 to 10.0. Different buffers were used depending on the pH value. As a check on the influence of the buffer, when changing the buffer this pH value was measured twice in the different buffers (pH 7.0 and pH 8.5). 0.1 M citric acid/Na2PO4 was used for the range pH 4.0-7.0, 0.1 M TEA was used for the range 7.0-8.5, and 0.1 M glycine/NaOH was used for the range pH 8.5-10.0.
At pH 8.5 the enzyme is still up to 100% stable after 8 hours in TEA/NaOH buffer as well as in glycine/NaOH buffer. The figure illustrates that the enzyme stable in the slightly alkaline range (pH 8-9) is also stable in a wider range. This range is useful for application purposes if the NADH oxidase for the oxidation is to be coupled with an NAD-dependent dehydrogenase, since the pH optimum of many dehydrogenases for the oxidation lies in a slightly alkaline range.

Row | Molecule | excess inhibition by NADH [1] | Km [2] | excess (substrate) inhibition at higher NADH concentrations ([3]; NADH up to 0.5 mM) | NADH concentration at which maximum activity is reached ([3]; NADH varied from 0.0013 to 0.52 mM) | oxidation of the R-alcohol of (R,S)-phenylethanol in the coupled reaction [4] | time for which the enzyme is in practice stable ([5]; storage at 30° C.) | half-value time of deactivation ([5]; storage at 30° C., after ca. 400 minutes) | residual activity ([5]; storage at 42° C., after initial deactivation (up to ca. 120 minutes), stable for at least 16 hours) | temperature of maximum activity [6] | first stability optimum (pH) ([7]; 8 hours incubation, FIG. 2) | second stability optimum (pH) ([7]; 8 hours incubation, FIG. 2) | stability in the range pH 5.5-7.5 ([7]; 8 hours incubation, pH 5.5-7.5) | stability (residual activity) after 8 hours at pH 8.5 ([7]; pH 8.5, TEA/NaOH buffer as well as glycine/NaOH buffer, 8 hours)
1 | NC(=O)C1=CN([C@@H]2O[C@H](COP(=O)(O)OP(=O)(O)OC[C@H]3O[C@@H](n4cnc5c(N)ncnc54)[C@H](O)[C@@H]3O)[C@@H](O)[C@H]2O)C=CC1 [NADH] | weak excess inhibition |  |  |  |  |  |  |  |  |  |  |  | 
2 | B1 |  | 24 µM | only a weak excess inhibition | 0.1 mM | almost completely oxidised | ca. 400 minutes | ca. 18 hours | ca. 50% | 40 °C | 5.0 pH | 8.5 pH | moderately stable | up to 100%
